Assay results taken from US20240182548A1 (AstraZeneca / MedImmune, published 2024).

Target: SARS2 spike protein with C-terminal 19aa deletion, on S protein pseudotyped lentivirus (SARS-CoV-2, UniProt P0DTC2 13-1254)
Test: cell-based or functional assay

B1: 2094 (antibody, V domains shown)
VH: EVQLVESGGGVVRPGGSLRLSCAASGFIFDDYDMTWVRQAPGKGLEWVSGINWNGGSTGYADSVKGRFTISRDNAKNSLYLQMNSLRAEDTALYHCAVIMSPIPRYSGYDWAGDAFDIWGQGTMVTVSS
VL: SSELTQDPAVSVALGQTVRITCQGDSLRSYYASWYQQKPGQVPILVIYDKNNRPSGIPDRFSGSSSGNTASLTITGAQAEDEADYYCNSRDSSGNAVVFGGGTKLTVL
- Pseudovirus neutralization IC50: 3 ng/mL

B2: 2096 (antibody, V domains shown)
VH: QVQLVQSGAEVKKPGASVKVSCKASGYTFGSFDINWVRQATGQGLEWMGRMNSNSGNTAYAQKFQGRVTMTRDTSTNTAYMELSSLRSEDTAMYYCARMRSGWPTHGRPDDFWGRGTLVTVSS
VL: QSVLTQAPSASGTPGQRVTISCSGSNSNIGSYTINWYQQLPGTAPKLLIYGNDQRTSGVPDRFSGSKFGTSASLAISGLQSEDENNYYCAVWDDSLNGLVFGGGTKLTVL
- Pseudovirus neutralization IC50: 3.3 ng/mL
